Results from US20250012721.

What was measured:
[1] = molecular target: T1, substrate peptide 1: 2Abz-GLQRALEI-Lys(Dnp)-NH2
T1 chain: GLQRALEI

[2] = molecular target: T2, substrate peptide 2: 2Abz-SLGRKIQ-Lys(Dnp)-NH2
T2 chain: SLGRKIQ

[3] = molecular target: T3, substrate peptide 3: 2Abz-GYLGRSYKVG-Lys(Dnp)D-OH (not fully specified)
T3 chain: GYLGRSYKVG

B1: double-stranded activated C1s protein (protein)
chain 1: EPTMYGEILSPNYPQAYPSEVEKSWDIEVPEGYGIHLYFTHLDIELSENCAYDSVQIISGDTEEGRLCGQRSSNNPHSPIVEEFQVPYNKLQVIFKSDFSNEERFTGFAAYYVATDINECTDFVDVPCSHFCNNFIGGYFCSCPPEYFLHDDMKNCGVNCSGDVFTALIGEIASPNYPKPYPENSRCEYQIRLEKGFQVVVTLRREDFDVEAADSAGNCLDSLVFVAGDRQFGPYCGHGFPGPLNIETKSNALDIIFQTDLTGQKKGWKLRYHGDPMPCPKEDTPNSVWEPAKAKYVFRDVVQITCLDGFEVVEGRVGATSFYSTCQSNGKWSNSKLKCQPVDCGIPESIENGKVEDPESTLFGSVIRYTCEEPYYYMENGGGGEYHCAGNGSWVNEVLGPELPKCVPVCGVPREPFEEKQR
chain 2: IIGGSDADIKNFPWQVFFDNPWAGGALINEYWVLTAAHVVEGNREPTMYVGSTSVQTSRLAKSKMLTPEHVFIHPGWKLLEVPEGRTNFDNDIALVRLKDPVKMGPTVSPICLPGTSSDYNLMDGDLGLISGWGRTEKRDRAVRLKAARLPVAPLRKCKEVKVEKPTADAEAYVFTPNMICAGGEKGMDSCKGDSGGAFAVQDPNDKTKFYAAGLVSWGPQCGTYGLYTRVKNYVDWIMKTMQENSTPRED
With B1 the Kcat/Km [1] was 1.67, the Kcat/Km [2] was 1.45 and the Kcat/Km [3] was 15.4.
